Bridges are numbered along the chain shown (N, C = ends).
T1: extracellular domain of activin receptor type IIB (ActRIIBecd), biotinylated (Homo sapiens (Human), UniProt Q13705 27-117, amino-biotinylated with amine-PEG3-Biotin)
T1 construct: immobilised on a streptavidin-coated sensor chip; also called biotinylated ActRIIBecd; extracellular domain of ActRIIB
T1 sequence: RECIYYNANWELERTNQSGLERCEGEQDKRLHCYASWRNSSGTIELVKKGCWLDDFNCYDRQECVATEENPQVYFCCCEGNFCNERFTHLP


Legend:
[1] = target: T1, extracellular domain of activin …; assay: Mean KD column of Table 5; method not restated (BIAcore as Example 5)
Description: (§1) Biosensor experiments. In one embodiment, experiments were performed on a BIAcore™ T100/T200 instrument (Pharmacia Biosensor AB) in the multichannel mode (serial flow path involving flow cells 1+2+3+4). Flow rate was 10 μl/min; temperature was 25° C.; and data were recorded at 2.5 points/s. All four segments of a sensor chip CMS were coated with streptavidin (Sigma) to a density of 2000 pg/mm² (2000 resonance units) by the aminocoupling procedure. ActRIIBecd (10 mg) and amine-PEG3-Biotin (10 mg, Pierce, Rockford, Ill.) were dissolved in 200 μl H₂O and 10 mg NaCNBH₃ was added to prepare biotinylated ActRIIBecd. The reaction mixture was heated at 70° C. for 24 h, after that a further 10 mg NaCNBH₃ was added and the reaction was heated at 70° C. for another 24 h. After cooling to room temperature, the mixture was desalted with the spin column (3,000 molecular weight cut off (MWCO)). Biotinylated ActRIIBecd was collected, freeze-dried and used for streptavidin (SA) chip preparation. Amino-biotinylated ActRIIBecd was then immobilized independently on flow cells 2-4 for 10 minutes at a flow rate of 5 μL/min and a concentration of 20 μM in 10 mM sodium acetate, pH 4.0, at a density of 50-250 resonance units (RU). The stored polypeptides were dissolved in glycine buffer (2.5 g of glycine, 0.5 g of sucrose, 370 mg of L-glutamate, 10 mg of sodium chloride, and 10 mg of Tween 80 in 100 mL water, pH 4.5) to prepare 10 mg/mL solution and then diluted with previous glycine buffer to prepare analytes with various concentration. Sensograms were recorded during flow of the analyte (the ActRIIBecd-associated polypeptides (i.e., domains) as previously described) first through flow cell 1 (control) then through flow cell 2 (biotinylated ActRIIBecd). The sensogram obtained for flow cell 1 was subtracted from the sensogram obtained for flow cell 2. The sensograms obtained at 1.11, 3.33, 10, 30, and 90 nM analyte were evaluated for equilibrium binding, association rate, and dissociation rate by using the programs supplied with the instrument (BIA evaluation 2.1; Software Handbook. 1995; Pharmacia Biosensor AB).

[2] = target: T1, extracellular domain of activin …; assay: BIAcore SPR as Example 5 (method not restated); SD ±2.15 nM
Description: as §1, with “Biotinylated ActRIIBecd was collected, freeze-dried and used for streptavidin (SA) chip preparation. Amino-biotinylated ActRIIBecd was then immobilized independently on flow cells 2-4 for 10 minutes at a flow rate of 5 μL/min and a concentration of 20 μM in 10 mM sodium acetate, pH 4.0, at a density of 50-250 resonance units (RU). The stored polypeptides were dissolved in glycine buffer (2.5 g of glycine, 0.5 g of sucrose, 370 mg of L-glutamate, 10 mg of sodium chloride, and 10 mg of Tween 80 in 100 mL water, pH 4.5) to prepare 10 mg/mL solution and then diluted with previous glycine buffer to prepare analytes with various concentration.” left out, “The sensogram obtained for flow cell 1 was subtracted from the sensogram obtained for flow cell 2.” left out

[3] = target: T1, extracellular domain of activin …; assay: Mean KD column of Table 5; method not restated (BIAcore as Example 5); species also listed in Table 4
Description: as §1

[4] = target: T1, extracellular domain of activin …; assay: BIAcore SPR as Example 5 (method not restated); SD ±1.63 nM
Description: as §1, with “Biotinylated ActRIIBecd was collected, freeze-dried and used for streptavidin (SA) chip preparation. Amino-biotinylated ActRIIBecd was then immobilized independently on flow cells 2-4 for 10 minutes at a flow rate of 5 μL/min and a concentration of 20 μM in 10 mM sodium acetate, pH 4.0, at a density of 50-250 resonance units (RU). The stored polypeptides were dissolved in glycine buffer (2.5 g of glycine, 0.5 g of sucrose, 370 mg of L-glutamate, 10 mg of sodium chloride, and 10 mg of Tween 80 in 100 mL water, pH 4.5) to prepare 10 mg/mL solution and then diluted with previous glycine buffer to prepare analytes with various concentration.” left out, “The sensogram obtained for flow cell 1 was subtracted from the sensogram obtained for flow cell 2.” left out

[5] = target: T1, extracellular domain of activin …; assay: BIAcore SPR as Example 5 (method not restated); SD ±1.55 nM
Description: as §1, with “The sensogram obtained for flow cell 1 was subtracted from the sensogram obtained for flow cell 2.” left out

[6] = target: T1, extracellular domain of activin …; assay: BIAcore SPR as Example 5 (method not restated); SD ±1.67 nM
Description: as §1, with “Biotinylated ActRIIBecd was collected, freeze-dried and used for streptavidin (SA) chip preparation. Amino-biotinylated ActRIIBecd was then immobilized independently on flow cells 2-4 for 10 minutes at a flow rate of 5 μL/min and a concentration of 20 μM in 10 mM sodium acetate, pH 4.0, at a density of 50-250 resonance units (RU). The stored polypeptides were dissolved in glycine buffer (2.5 g of glycine, 0.5 g of sucrose, 370 mg of L-glutamate, 10 mg of sodium chloride, and 10 mg of Tween 80 in 100 mL water, pH 4.5) to prepare 10 mg/mL solution and then diluted with previous glycine buffer to prepare analytes with various concentration.” left out, “The sensogram obtained for flow cell 1 was subtracted from the sensogram obtained for flow cell 2.” left out

Kd [1] [nM] | Kd [3] [nM] | Binder | further results
7.41 |  | SEQ ID NO: 276, cysteine pairs C67-C71^a (designed binder, disulfides C67-C71 (intra)) NSKIPKACCVPTELSAISMLYLDENEKVVLKNYQDMVVEGCGCRVDFSDVGWNDWIVAPPGYHAFYCHGECPFPLADHLNSTNHAIVQTLVNSVAQAKHKQRKRLKSSCKRHPLY | 
4.67 |  | SEQ ID NO: 316, cysteine pairs C67-C71^a (designed binder, disulfides C67-C71 (intra)) NSKDPKACCVPTELSAPSPLYLDENEKPVLKNYQDMVVHGCGCRVDFKDVGWNDHAVAPPGYHAFYCHGECPFPLADHLNSDNHAIVQTKVNSVGQAKRKGYKRLKSSCKRHPLY | 
 | 17 | SEQ ID NO: 206, cysteine pairs C67-C71^a, C8-C43^b, C9-C41^b (designed binder, disulfides C67-C71 (intra), C8-C43 (inter), C9-C41 (inter), homodimer by intermolecular disulfide) NSKIPKACCVPTELSAISMLYLDENEKVVLKNYQDMVVEGCGCRVDFSDVGWNDWIVAPPGYHAFYCHGECPFPLADHLNSTNHAIVQTLVNSV | Kd [2]: 17 nM
 | 18.1 | SEQ ID NO: 242, cysteine pairs C15-C15^b, C29-C64^a, C30-C62^a (designed binder, disulfide 29-64, 30-62; also: homodimer via intermolecular C15-C15 disulfide, homodimer by intermolecular disulfide) GQAKRKGYKRLKSSCKRHPLYNSKDPKACCVPTELSAPSPLYLDENEKPVLKNYQDMVVHGCGCR | Kd [4]: 18.1 nM
4.51 |  | SEQ ID NO: 348, cysteine pairs C88-C92^a (designed binder, disulfides C88-C92 (intra)) GQAKRKGYKRLKSSCKRHPLYNSKIPKACCVPTELSAISMLYLDENEKVVLKNYQDMVVEGCGCRVDFSDVGWNDWIVAPPGYHAFYCHGECPFPLADHLNSTNHAIVQTLVNSV | 
8.92 |  | SEQ ID NO: 300, cysteine pairs C23-C27^a (designed binder, disulfides C23-C27 (intra)) VDFKDVGWNDHAVAPPGYHAFYCHGECPFPLADHLNSDNHAIVQTKVNSVGQAKRKGYKRLKSSCKRHPLYNSKDPKACCVPTELSAPSPLYLDENEKPVLKNYQDMVVHGCGCR | 
 | 6.37 | SEQ ID NO: 340, cysteine pairs C15-C15^b, C29-C64^b, C30-C62^b, C88-C92^a (designed binder, disulfides C15-C15 (inter), C29-C64 (inter), C30-C62 (inter), C88-C92 (intra), homodimer by intermolecular disulfide) AQAKHKQRKRLKSSCKRHPLYNSKDPKACCVPTELSAPSPLYLDENEKPVLKNYQDMVVHGCGCRVDFKDVGWNDHAVAPPGYHAFYCHGECPFPLADHLNSDNHAIVQTKVNSV | Kd [5]: 6.37 nM
5.64 |  | SEQ ID NO: 340, cysteine pairs C88-C92^a (designed binder, disulfides C88-C92 (intra)) AQAKHKQRKRLKSSCKRHPLYNSKDPKACCVPTELSAPSPLYLDENEKPVLKNYQDMVVHGCGCRVDFKDVGWNDHAVAPPGYHAFYCHGECPFPLADHLNSDNHAIVQTKVNSV | 
 | 52.2 | SEQ ID NO: 230, cysteine pairs C27-C65^a (designed binder, disulfides C27-C65 (intra)) VDFKDVGWNDHAVAPPGYHAFYCHGECPFPLADHLNSDNHAIVQTKVNSVGQAKRKGYKRLKSSCKRHPLY | Kd [4]: 52.2 nM
 | 18.1 | SEQ ID NO: 194, cysteine pairs C23-C27^a (designed binder, disulfides C23-C27 (intra)) VDFSDVGWNDWIVAPPGYHAFYCHGECPFPLADHLNSTNHAIVQTLVNSVAQAKHKQRKRLKSSCKRHPLY | Kd [6]: 18.1 nM
 | 6.91 | SEQ ID NO: 284, cysteine pairs C59-C59^b, C8-C43^b, C9-C41^b, C88-C92^a (designed binder, disulfides C59-C59 (inter), C8-C43 (inter), C9-C41 (inter), C88-C92 (intra), homodimer by intermolecular disulfide) NSKIPKACCVPTELSAISMLYLDENEKVVLKNYQDMVVEGCGCRAQAKHKQRKRLKSSCKRHPLYVDFSDVGWNDWIVAPPGYHAFYCHGECPFPLADHLNSTNHAIVQTLVNSV | Kd [5]: 6.91 nM
8.14 |  | SEQ ID NO: 284, cysteine pairs C88-C92^a (designed binder, disulfides C88-C92 (intra)) NSKIPKACCVPTELSAISMLYLDENEKVVLKNYQDMVVEGCGCRAQAKHKQRKRLKSSCKRHPLYVDFSDVGWNDWIVAPPGYHAFYCHGECPFPLADHLNSTNHAIVQTLVNSV | 
7.81 |  | SEQ ID NO: 292, cysteine pairs C44-C48^a (designed binder, disulfides C44-C48 (intra)) GQAKRKGYKRLKSSCKRHPLYVDFKDVGWNDHAVAPPGYHAFYCHGECPFPLADHLNSDNHAIVQTKVNSVNSKDPKACCVPTELSAPSPLYLDENEKPVLKNYQDMVVHGCGCR | 
